Assay results: patent US10365283B2, “Activated HER3 as a marker for predicting therapeutic efficacy” (U3 PHARMA GMBH, priority 2006, dated 2019)

Target: T1, pHer3 in BxPC3 and Calu-3 xenografts (Homo sapiens, UniProt P21860)
T1 construct: on FFPE sections of BxPC3 xenografts; endogenous in cells; host or cells: BxPC3 (pancreas cancer) and Calu-3 (NSCLC) human tumour cells grown as xenografts in mice
Test: Immunohistochemical staining with anti-pHer3 antibody 21D3 on FFPE sections of xenograft tumours after antibody administration
Assay type: in vivo
Details: FIGS. 7, 8 and 11, versus control IgG1
Experimental: FIG. 7: Immunohistochemical staining with rabbit monoclonal anti-p Her3 antibody (Cell Signalling 21D3, Lot 4 1:650 dilution, 0.074 ug/ml) on FFPE sections of BxPC3 xenografts, 20×. • (A) and (B) Tumour after administration of control IgG1 500 μg/mouse • (C) and (D) Tumour after administration of antibody U3-1287 500 μg/mouse • Stainings were done in duplicate on three independent xenografts.
FIG. 8: Immunohistochemical staining with rabbit monoclonal anti-pHer3 antibody (Cell Signalling 21D3, Lot 4 1:650 dilution, 0.074 ug/ml) on FFPE sections of BxPC3 xenografts, 20×. • (A) Tumour after administration of antibody U3-1287 25 μg/mouse • (B) Tumour after administration of antibody […] 100 μg/mouse • (C) Tumour after administration of antibody U3-1287 200 μg/mouse • (D) Tumour after administration of antibody U3-1287 500 μg/mouse • (E) Tumour after administration of control IgG1 500 μg/mouse. • Stainings were done in duplicate on three independent xenografts.
FIG. 11: Immunohistochemical staining with rabbit monoclonal anti pHer3 antibody (Cell Signalling 21D3, Lot 4 1:8000 dilution, 0.006 ug/ml) on FFPE sections Calu-3 xenografts, 40×. • (A) and (B) Tumour after administration of control IgG1 25 mg/kg 72 h • (C) and (D) Tumour after administration of antibody U3-1287 25 mg/kg 72 h • Stainings were done in duplicate on five independent xenografts.
Using a microtome, 2-4 μm thin sections were cut, mounted on silanized glass slides and dried at 60° C. for 30 minutes and at 38° C. overnight. Deparaffinisation and rehydration of the specimen was achieved by incubating 2×5 minutes in Xylol, 2×2 minutes in 100% ethanol and 2 minutes each in 96%, 80% and 70% ethanol. After rinsing 20 seconds in distilled water, the slides were incubated for two minutes in PBS. […]
The anti-tumor efficacy of a HER modulator were evaluated in human xenograft tumor studies. In these studies, human tumors were grown as xenografts in immunocompromised mice and therapeutic efficacy was measured by the degree of tumor growth inhibition in response to administrations of the HER modulator. […]

anti-HER3 antibody: anti-HER3 antibody U3-1287 administered to mice bearing BxPC3 or Calu-3 xenografts
reduction: membrane staining intensity (pHer3) | pHer3 positive cells compared to whole cell number in the tumour | tumour cells compared to whole cell number in the tumour
